# Source: patent publication US20240376204A1 (JIANGSU HENGRUI PHARMACEUTICALS, published 2024)
# Where two headings read alike, the source gives them in different places.
# T1: human TIGIT expressed on cells (human, UniProt Q495A1 22-244)
# T1 construct: whole, on cells; also called cells overexpressing human TIGIT; CHO-K1 cell strain expressing the human TIGIT gene
# T1 sequence (looked up): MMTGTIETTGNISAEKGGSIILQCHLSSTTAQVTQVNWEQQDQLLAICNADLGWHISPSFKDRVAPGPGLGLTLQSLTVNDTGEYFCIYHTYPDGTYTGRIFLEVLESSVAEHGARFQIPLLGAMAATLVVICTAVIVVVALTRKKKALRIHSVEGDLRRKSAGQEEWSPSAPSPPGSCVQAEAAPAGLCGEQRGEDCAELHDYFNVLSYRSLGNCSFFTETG
# T2: human TIGIT recombinant protein (human, UniProt Q495A1 22-141)
# T2 construct: also called human TIGIT antigen (AcroBiosystem, TIT-H52H3); TIGIT protein
# T2 sequence (looked up): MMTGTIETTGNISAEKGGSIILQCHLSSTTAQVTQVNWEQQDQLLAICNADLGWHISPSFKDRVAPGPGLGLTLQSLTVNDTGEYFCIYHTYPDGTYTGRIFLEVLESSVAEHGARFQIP
# T3: human PVRIG expressed on cells (human, UniProt Q6DKI7 41-326)
# T3 sequence (looked up): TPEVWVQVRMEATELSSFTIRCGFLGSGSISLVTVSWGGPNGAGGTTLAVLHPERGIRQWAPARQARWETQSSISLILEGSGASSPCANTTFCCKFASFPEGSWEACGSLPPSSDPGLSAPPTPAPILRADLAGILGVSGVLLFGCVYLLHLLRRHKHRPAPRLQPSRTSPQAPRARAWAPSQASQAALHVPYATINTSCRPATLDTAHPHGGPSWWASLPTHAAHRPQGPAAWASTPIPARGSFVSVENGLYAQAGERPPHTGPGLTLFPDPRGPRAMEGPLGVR
# T4: his-tagged human PVRIG (h-PVRIG-his) recombinant protein (human, UniProt Q6DKI7 41-171, limits assumed)
# T4 construct: Acrobiosystems; also called Human PVRIG-his; human PVRIG recombinant protein; not shown: his tag
# T4 sequence (looked up): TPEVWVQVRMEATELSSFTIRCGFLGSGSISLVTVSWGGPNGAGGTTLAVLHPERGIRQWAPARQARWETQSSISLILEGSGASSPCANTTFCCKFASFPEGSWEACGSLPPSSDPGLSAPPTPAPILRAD
# Experiments:
# [1] = biological target: T1, human TIGIT expressed on cells; assay: FACS by the method of Example 2-2 with human TIGIT; numbers not given
# [2] = biological target: T2, human TIGIT recombinant protein; assay: ELISA by the method of Example 2-2 with human TIGIT; numbers not given
# [3] = biological target: T3, human PVRIG expressed on cells; assay: cell-based or functional assay
# [4] = biological target: T3, human PVRIG expressed on cells; assay: cell-based or functional assay; remark: listed apart in the source
# [5] = biological target: T3, human PVRIG expressed on cells; assay: cell-based or functional assay; remark: listed apart in the source
# [6] = biological target: T4, his-tagged human PVRIG (h-PVRIG-his) …; assay: BLI (Fortebio), antibody on Protein A sensor, his-tagged human PVRIG as analyte
# Description: A Protein A biosensor (Fortebio, #18-5010) was immersed in 200 μL of KB buffer (PBS, pH 7.4, 0.02% tween-20, 0.10% BSA) for 60 s as a wetting treatment. Then an anti-PVRIG antibody was diluted to 10 μg/mL with KB buffer, and the sensor was immersed in 200 μL of the solution until the reading was 1.2 nm. The sensor was immersed in KB buffer for 100 s to remove excess antibody. […] The sensor was placed in the solution for 300 seconds of binding and then in KB buffer for 600 seconds of dissociation. Fitting was performed using a dynamic 1:1 binding mode.
# [7] = biological target: T5, human PD-1 expressed on cells (human, UniProt Q15116 25-288); assay: cell-based or functional assay
# T5 sequence (Q15116 25-288 limits assumed): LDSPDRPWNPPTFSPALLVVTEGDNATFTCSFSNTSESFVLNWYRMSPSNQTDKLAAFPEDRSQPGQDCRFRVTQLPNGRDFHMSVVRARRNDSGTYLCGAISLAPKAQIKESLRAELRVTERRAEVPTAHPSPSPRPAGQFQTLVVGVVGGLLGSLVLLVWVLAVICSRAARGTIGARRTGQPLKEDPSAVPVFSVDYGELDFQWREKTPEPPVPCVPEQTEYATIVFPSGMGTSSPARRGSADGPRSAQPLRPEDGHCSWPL
# [8] = biological target: T5, human PD-1 expressed on cells; assay: cell-based or functional assay; remark: listed apart in the source
# [9] = biological target: T4, his-tagged human PVRIG (h-PVRIG-his) …; assay: ELISA, plate coated with PVRIG protein (his tag)
# Description: ELISA assays were performed. TIGIT or PVRIG protein (his tag, Acrobiosystems, PVG-H52H4) was dissolved in PBS to 1 μg/mL, and the solution was added to a 96-well plate at 100 μL/well. The plate was coated with the antigen overnight at 4° C. The plate was washed with PBST solution three times. PBST/1% BSA solution was added, and the plate was incubated at 37° C. for 1 h for blocking. After three washes with PBST solution, different concentrations of the trispecific antibodies (diluted with PBST/1% BSA solution) were added, and the plate was incubated at 37° C. for 1.5 h. The plate was washed with PBST solution three times. […] After three washes with PBST solution, TMB solution was added at 100 μL/well. After 5 min of reaction at room temperature, 50 μL of stop solution was added. OD450 values were measured using a microplate reader, and EC₅₀ was calculated.
Binder,binding result [1],binding result [2],"DC:T MLR result, 0.1 nM antibody (unit not given) [7]","DC:T MLR result, 1 nM antibody (unit not given) [7]","DC:T MLR result, 10 nM antibody (unit not given) [7]","DC:T MLR result, 100 nM antibody (unit not given) [7]",IC50 (read off the curve) [8] [nM],EC50 [9] [nM],also measured
"Tab5 (antibody, human IgG4 S228P, kappa, F234A L235A, V domains shown, Anti-PVRIG positive control, IgG4 S228P/F234A/L235A/K447A; also called positive antibody Tab5; CPA.7.021 variable regions on human IgG4/kappa) VH: EVQLVESGGGVVKPGGSLRLSCAASGFTFGTSSMNWVRQAPGKGLEWVAVISFDGTEIHYADSVKGRFTISRDNSKSTVFLQMNSLRPDDTALYYCAKGSGNIYFYSGMDVWGQGTTVTVSS VL: DIQMTQSPSTLSASVGDRVTITCRAGQSISGWLAWFQQKPGKAPNLLIYETSTLESGVPSRFSGSGSGTEYTLTISSLQPDDFATYYCQQYYSYPLTFGQGTKVEIKR",,,,,,,,,"PVRIG reporter gene cell activity EC50 [3]: 0.74 nM; IFNγ, mixed lymphocyte reaction, 4 nM antibody [4]: 912 pg/mL; IFNγ, mixed lymphocyte reaction, 20 nM antibody [4]: 1420 pg/mL; IFNγ, mixed lymphocyte reaction, 100 nM antibody [4]: 2350 pg/mL; PVRIG reporter gene cell activity EC50 [5]: 1.38 nM; kon [6]: 737000 M⁻¹ s⁻¹"
"A17h1-1708-151H7-D (trispecific antibody, human IgG4 S228P, kappa) heavy: not shown light: DIQMTQSPSSLSASVGDRVTITCRASENIYSYLAWYQQKPGKSPKLLIYNARTLAEGVPSRFSGSGSGTDFTLTISSLQPEDFATYYCQYHSGSPLPFGGGTKVEIKRTVAAPSVFIFPPSDEQLKSGTASVVCLLNNFYPREAKVQWKVDNALQSGNSQESVTEQDSKDSTYSLSSTLTLSKADYEKHKVYACEVTHQGLSSPVTKSFNRGECGGGGSGGGGSEVQLQESGGGLVQPGGSLRLSCTASGLTFSDYSMSWYRQAPGKGRELVAIISGSGVIAHYVDSVKGRFTISRDNSKNTVYLQMRSLTPEDRAVYYCRAVSDWDDYWGQGTQVTVSS",,,84.8,97.3,137,149,~1,0.158,
"A17h1-1708-151H7-C (trispecific antibody, human IgG4 S228P, kappa, Type C) heavy: not shown light: DIQMTQSPSSLSASVGDRVTITCRASENIYSYLAWYQQKPGKSPKLLIYNARTLAEGVPSRFSGSGSGTDFTLTISSLQPEDFATYYCQYHSGSPLPFGGGTKVEIKRTVAAPSVFIFPPSDEQLKSGTASVVCLLNNFYPREAKVQWKVDNALQSGNSQESVTEQDSKDSTYSLSSTLTLSKADYEKHKVYACEVTHQGLSSPVTKSFNRGEC",,,118,136,151,152,~0.8,0.16,
"A17h1-1708-151H7-A (trispecific antibody, human IgG4 S228P, kappa) heavy: not shown light: DIQMTQSPSSLSASVGDRVTITCRASENIYSYLAWYQQKPGKSPKLLIYNARTLAEGVPSRFSGSGSGTDFTLTISSLQPEDFATYYCQYHSGSPLPFGGGTKVEIKRTVAAPSVFIFPPSDEQLKSGTASVVCLLNNFYPREAKVQWKVDNALQSGNSQESVTEQDSKDSTYSLSSTLTLSKADYEKHKVYACEVTHQGLSSPVTKSFNRGEC",,,91.3,121,147,155,~0.9,0.0952,

# Second part, led by results:
binding result [1],binding result [2],"DC:T MLR result, 0.1 nM antibody (unit not given) [7]","DC:T MLR result, 1 nM antibody (unit not given) [7]","DC:T MLR result, 10 nM antibody (unit not given) [7]","DC:T MLR result, 100 nM antibody (unit not given) [7]",IC50 (read off the curve) [8] [nM],EC50 [9] [nM],Binder,also measured
binds,binds,,,,,,,"1708-151-4 (bispecific antibody, human IgG4 S228P, kappa, Anti-PVRIG/TIGIT) heavy: not shown light: DIQMTQSPSSLSASVGDRVTITCRASENIYSYLAWYQQKPGKSPKLLIYNARTLAEGVPSRFSGSGSGTDFTLTISSLQPEDFATYYCQYHSGSPLPFGGGTKVEIKRTVAAPSVFIFPPSDEQLKSGTASVVCLLNNFYPREAKVQWKVDNALQSGNSQESVTEQDSKDSTYSLSSTLTLSKADYEKHKVYACEVTHQGLSSPVTKSFNRGECGGGGSGGGGSHVQLVESGGGSVQAGGSLRLSCVASASGFTYRPYCMAWFRQAPGKEREAVAGIDIFGGTTYADSVKGRFTASRDNAGFSLFLQMNDLKPEDTAMYYCAAGDSPDGRCPPLGQGLNYWGQGTQVTVSS",
binds,binds,,,,,,,"1708-151-3 (bispecific antibody, human IgG4 S228P, kappa, Anti-PVRIG/TIGIT) heavy: not shown light: HVQLVESGGGSVQAGGSLRLSCVASASGFTYRPYCMAWFRQAPGKEREAVAGIDIFGGTTYADSVKGRFTASRDNAGFSLFLQMNDLKPEDTAMYYCAAGDSPDGRCPPLGQGLNYWGQGTQVTVSSGGGGSGGGGSDIQMTQSPSSLSASVGDRVTITCRASENIYSYLAWYQQKPGKSPKLLIYNARTLAEGVPSRFSGSGSGTDFTLTISSLQPEDFATYYCQYHSGSPLPFGGGTKVEIKRTVAAPSVFIFPPSDEQLKSGTASVVCLLNNFYPREAKVQWKVDNALQSGNSQESVTEQDSKDSTYSLSSTLTLSKADYEKHKVYACEVTHQGLSSPVTKSFNRGEC",
binds,binds,,,,,,,"1708-151-2 (bispecific antibody, human IgG4 S228P, kappa, Anti-PVRIG/TIGIT) heavy: not shown light: DIQMTQSPSSLSASVGDRVTITCRASENIYSYLAWYQQKPGKSPKLLIYNARTLAEGVPSRFSGSGSGTDFTLTISSLQPEDFATYYCQYHSGSPLPFGGGTKVEIKRTVAAPSVFIFPPSDEQLKSGTASVVCLLNNFYPREAKVQWKVDNALQSGNSQESVTEQDSKDSTYSLSSTLTLSKADYEKHKVYACEVTHQGLSSPVTKSFNRGEC",
binds,binds,,,,,,,"1708-151-1 (bispecific antibody, human IgG4 S228P, kappa, Anti-PVRIG/TIGIT) heavy: not shown light: DIQMTQSPSSLSASVGDRVTITCRASENIYSYLAWYQQKPGKSPKLLIYNARTLAEGVPSRFSGSGSGTDFTLTISSLQPEDFATYYCQYHSGSPLPFGGGTKVEIKRTVAAPSVFIFPPSDEQLKSGTASVVCLLNNFYPREAKVQWKVDNALQSGNSQESVTEQDSKDSTYSLSSTLTLSKADYEKHKVYACEVTHQGLSSPVTKSFNRGEC",
